PMC6771821, “Cryo‐EM structure of the MinCD copolymeric filament from Pseudomonas aeruginosa at 3.1 Å resolution” (Febs Letters, 2019)

Molecular target: the molecule itself
Assay: cryo-EM structure; unsupported MinCD filaments in solution; MinC and MinD each 0.5 mg/mL combined in equal proportion in 20 mM HEPES-Na, 100 mM potassium acetate, 5 mM magnesium acetate, pH 7.0; 1 mM ATP, 15 min at room temperature; helical reconstruction

B1: MinC from Pseudomonas aeruginosa, full-length, His6-tagged (natural protein, UniProt Q9HYZ7 1-263, looked up)
chain: MSQADLLDQDPVFQLKGSMLAVTILELAHNDLARLERQLADKVAQAPNFFRDTPLVMALDKLPEGEGRLDLPALLEVCRRHGLRTLAIRAGREEDIAAAQALDLPVLPPSGARERPLDIKDSAPRKPAEEPSPSAGEARPEPAKAEEKPAEPVSRPTKVVKTPVRGGMQIYAAGGDLIVLAAVSPGAELLADGNIHVYGPMRGRALAGVKGDATARIFCQQLAAELVSIAGNYKVAEDLRRSPQWGKAVHVSLSGDVLNITRL
notes: MinC (septum site-determining protein), Pseudomonas aeruginosa, residues 1-263, cloned into pET-15b; only residues 156-261 (MinC^C) are modelled in the cryo-EM map; the tag was not removed; also called MinC2 (dimer); source: E. coli C41(DE3), purified (HisTrap HP, dialysis); not shown: His6, N-terminal, kept
binding result: binds
